Target: SARS-CoV-2 spike trimer (S trimer), soluble ectodomain (SARS-CoV-2), P0DTC2
Experiment: cryo-EM structure of Fab 2-4 with S trimer
Conditions: remark: other sources report otherwise

B1: Fab of antibody 2-4 (Fab, V domains shown)
VH: QVQLVQSGAEVKKPGASVKVSCKASGYTFTGYYMHWVRQAPGQGLEWMGWINPNSGGTNYTQMFQGRVTMTRDTSISTAYMEVSRLRSDDTAVYYCARDRSWAVVYYYMDVWGKGTTVTVSS
VL: QSALTQPPSASGSPGQSVTISCTGTSSDVGGYNYVSWYQQHPGKAPKLMIYEVSKRPSGVPDRFSGSKSGNTASLTVSGLQAEDEADYYCSSYAGSNNLVFGGGTKLTVL
buried surface area of the epitope on RBD: 751 A2

From patent US20230203138A1
